From the FLAb antibody collection (doi:10.7554/elife.23156)

B1: scFv; the commonest letter at each place (parent)
chain 1: EVKLDETGGGLVQPGRPMKLSCVASGFTFSDYWMNWVRQSPEKGLEWVAQIRNKPYNYETYYSDSVKGRFTISRDDSKSSVYLQMNNLRVEDMGIYYCTGSYYGMDYWGQGTSVTVS
chain 2: DVVMTQTPLSLPVSLGDQASISCRSSQSLVHSNGNTYLRWYLQKPGQSPKVLIYKVSNRFSGVPDRFSGSGSGTDFTLKISRVEAEDLGVYFCSQSTHVPWTFGGGTKLEIK

Experiments:
fluorescein = variants of: B1; test: Kd (Tite-Seq); conditions: with fluorescein; format: scFv 4-4-20, heavy + light
[1] = variants of: B1; test: yeast surface expression (ratio to wild type); higher = more expressed; conditions: format: scFv 4-4-20, heavy + light

| Variant | Kd (fluorescein) [µM] | yeast surface expression [1] |
| --- | --- | --- |
| chain 1 G100S Y103P | ≥ 10 | 0.689 |
| chain 1 G104A D106Q Y107E | ≥ 10 | 0.519 |
| chain 1 S101H Y103N | ≥ 10 | 0.984 |
| chain 1 G100L G109V | ≥ 10 | 0.253 |
| chain 1 G100L G109S | 9.5 | 0.566 |
| chain 1 W36L | ≥ 10 | 0.686 |
| chain 1 W36S | ≥ 10 | 0.813 |
| chain 1 W36D | ≥ 10 | 0.512 |
| chain 1 T28F F29W V37K | ≥ 10 | 0.532 |
| chain 1 G100D D106G G109S | ≥ 10 | 0.224 |
| chain 1 Y102M M105K D106W | ≥ 10 | 0.527 |
| chain 1 F29T S30D M34V | ≥ 10 | 0.837 |
| chain 1 T28Y W36Q | ≥ 10 | 0.297 |
| chain 1 T28Y S30P | 0.000804 | 1.08 |
| chain 1 D31W W36E | ≥ 10 | 1.08 |
| chain 1 T28V M34Y | 0.00966 | 0.889 |
| chain 1 W33N | ≥ 10 | 1.01 |
| chain 1 G100L G104Q W108M | ≥ 10 | 0.343 |
| chain 1 D31C M34P | ≥ 10 | 0.56 |
| chain 1 S30A W36H | ≥ 10 | 0.457 |
| chain 1 Y102R Y103P | ≥ 10 | 0.979 |
| chain 1 M105S D106E | ≥ 10 | 1.32 |
| chain 1 S30K N35I | ≥ 10 | 0.879 |
| chain 1 F29C W33Q | ≥ 10 | 0.687 |
| chain 1 Y103S D106K | ≥ 10 | 0.311 |

| Variant | Kd (fluorescein) [µM] | yeast surface expression [1] |
| --- | --- | --- |
| chain 1 Y102W Y103W | 2.88 | 0.645 |
| chain 1 T28L S30R | 0.000891 | 0.99 |
| chain 1 W36K V37H | ≥ 10 | 0.773 |
| chain 1 M105H W108Q | ≥ 10 | 0.294 |
| chain 1 V37P | ≥ 10 | 0.676 |
| chain 1 V37Y | 0.129 | 1.04 |
| chain 1 V37N | 0.00309 | 0.62 |
| chain 1 G100R Y103D W108G | ≥ 10 | 0.483 |
| chain 1 Y107G | ≥ 10 | 0.544 |
| chain 1 Y107D | 7.72 | 0.779 |
| chain 1 Y107R | 0.102 | 0.767 |
| chain 1 Y107H | 0.00251 | 1 |
| chain 1 Y102K W108S | ≥ 10 | 0.534 |
| chain 1 F29R D31G | ≥ 10 | 0.755 |
| chain 1 D31E M34P | ≥ 10 | 0.406 |
| chain 1 D106N G109N | ≥ 10 | 0.301 |
| chain 1 D31H Y32S | 8.56 | 0.802 |
| chain 1 S101F G109S | ≥ 10 | 0.424 |
| chain 1 W36D V37H | ≥ 10 | 0.21 |
| chain 1 Y102R G109L | ≥ 10 | 0.279 |
| chain 1 S30T M34E | 0.345 | 0.314 |
| chain 1 D106M W108H | ≥ 10 | 0.556 |
| chain 1 F29T D31P | ≥ 10 | 1.06 |
| chain 1 Y103W W108S | ≥ 10 | 0.526 |
| chain 1 D106T G109M | ≥ 10 | 0.285 |

| Variant | Kd (fluorescein) [µM] | yeast surface expression [1] |
| --- | --- | --- |
| chain 1 G104D M105W | ≥ 10 | 0.703 |
| chain 1 S101D | ≥ 10 | 0.888 |
| chain 1 D31Y W33H | ≥ 10 | 0.579 |
| chain 1 M105V G109I | ≥ 10 | 0.203 |
| chain 1 D31P Y32K | ≥ 10 | 0.708 |
| chain 1 F29A V37I | 0.0851 | 0.834 |
| chain 1 F29G N35I | ≥ 10 | 0.645 |
| chain 1 Y103Q M105Q | 4.37 | 1.14 |
| chain 1 D106Y G109D | ≥ 10 | 0.224 |
| chain 1 G100E G104I | ≥ 10 | 0.281 |
| chain 1 Y32H V37Q | ≥ 10 | 0.372 |
| chain 1 S101Y W108V | ≥ 10 | 0.397 |
| chain 1 D31A W36H | ≥ 10 | 0.137 |
| chain 1 S101Y Y102N D106Y | ≥ 10 | 0.501 |
| chain 1 G100Y D106S | ≥ 10 | 0.505 |
| chain 1 S101Y Y103G | ≥ 10 | 0.935 |
| chain 1 T28P S30G | 0.000804 | 1.25 |
| chain 1 Y103H W108R | ≥ 10 | 0.35 |
| chain 1 M34N | 2.28 | 0.695 |
| chain 1 M34V | 0.00361 | 0.876 |
| chain 1 F29L S30T V37W | ≥ 10 | 0.536 |
| chain 1 Y103H G109M | ≥ 10 | 0.304 |
| chain 1 F29A M34G | ≥ 10 | 0.656 |
| chain 1 G104E G109Y | ≥ 10 | 0.384 |

Now from value to variant, other results behind:

| Kd (fluorescein) [µM] | Variant | yeast surface expression [1] |
| --- | --- | --- |
| ≥ 10 | chain 1 S101C D106I G109A | 0.168 |
| ≥ 10 | chain 1 S30R Y32W | 0.811 |
| ≥ 10 | chain 1 Y103I G104M | 0.368 |
| ≥ 10 | chain 1 D31E W33C | 0.827 |
| ≥ 10 | chain 1 G100M S101E W108V | 0.515 |
| ≥ 10 | chain 1 S101T W108C | 0.471 |
| ≥ 10 | chain 1 W33M | 0.887 |
| ≥ 10 | chain 1 W33M V37L | 0.553 |
| ≥ 10 | chain 1 M34H N35P | 2.76 |
| 0.00746 | chain 1 W36F V37N | 0.509 |
| ≥ 10 | chain 1 S101M G104W | 0.278 |
| ≥ 10 | chain 1 D106C W108H | 0.583 |
| 0.0592 | chain 1 W36K V37N | 0.168 |
| 0.0132 | chain 1 F29P S30Q | 1.05 |
| ≥ 10 | chain 1 Y102F G104K | 0.81 |
| 0.004 | chain 1 Y102H | 1.17 |
| 0.000869 | chain 1 Y102S | 1.14 |
| ≥ 10 | chain 1 Y103I W108S | 0.397 |
| ≥ 10 | chain 1 S101I G104Q | 0.397 |
| ≥ 10 | chain 1 G100D G104A | 0.116 |
| ≥ 10 | chain 1 S101C Y107C | 0.493 |

| Kd (fluorescein) [µM] | Variant | yeast surface expression [1] |
| --- | --- | --- |
| ≥ 10 | chain 1 Y32H N35Q | 0.811 |
| ≥ 10 | chain 1 Y103S G104N | 1.04 |
| ≥ 10 | chain 1 D31R Y32I | 0.818 |
| 0.00128 | chain 1 D31H V37Q | 0.928 |
| 0.00468 | chain 1 T28N D31C | 0.826 |
| ≥ 10 | chain 1 Y103C D106L | 0.589 |
| ≥ 10 | chain 1 S30Q D31H Y32N | 0.857 |
| 9.02 | chain 1 D31S V37H | 0.644 |
| ≥ 10 | chain 1 Y32G M34P | 0.545 |
| ≥ 10 | chain 1 M105D W108S | 0.458 |
| ≥ 10 | chain 1 S30V M34S | 0.569 |
| ≥ 10 | chain 1 Y102N D106E | 1.27 |
| 0.0507 | chain 1 T28F D31A | 0.637 |
| ≥ 10 | chain 1 N35I W36L | 2.65 |
| ≥ 10 | chain 1 M34T W36L | 0.455 |
| ≥ 10 | chain 1 G100D G109T | 0.21 |
| 0.0391 | chain 1 M34W | 0.869 |
| ≥ 10 | chain 1 D106F G109A | 0.112 |
| 0.0171 | chain 1 Y103G | 1.14 |
| ≥ 10 | chain 1 T28W F29P S30F | 0.601 |
